# In patent US20220041691A1, “METHODS FOR DIAGNOSING OR TREATING POST-TRAUMATIC STRESS DISORDER, AND COMPOSITIONS THEREFOR” (Centre for Addiction and Mental Health, priority 2018, published 2022):
# “Also recorded” adds a separate entry of the source. Read-outs that look alike come from different tables or passages of the source. Ends that are not written are not given here.
# T1: FKBP51 (Mus musculus, UniProt Q64378)
# T1 construct: from tissue; host or cells: mouse brain
# T1 sequence (Q64378 1-456): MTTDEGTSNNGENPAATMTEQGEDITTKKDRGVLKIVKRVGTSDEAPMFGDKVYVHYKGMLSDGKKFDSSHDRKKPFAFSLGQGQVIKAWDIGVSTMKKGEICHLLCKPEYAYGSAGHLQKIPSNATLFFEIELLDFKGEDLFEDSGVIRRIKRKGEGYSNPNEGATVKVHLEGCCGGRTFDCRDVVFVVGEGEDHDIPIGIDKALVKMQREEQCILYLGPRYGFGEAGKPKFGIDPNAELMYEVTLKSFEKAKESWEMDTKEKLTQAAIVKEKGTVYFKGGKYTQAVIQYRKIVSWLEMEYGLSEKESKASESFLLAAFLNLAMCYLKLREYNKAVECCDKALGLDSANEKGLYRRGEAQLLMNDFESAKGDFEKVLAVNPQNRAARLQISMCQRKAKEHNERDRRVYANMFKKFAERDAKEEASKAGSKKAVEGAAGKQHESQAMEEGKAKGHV
# T2: FKBP51-TPR (Homo sapiens, UniProt Q13451)
# T2 construct: made in house; host or cells: bacteria
# T2 sequence (Q13451 258-457): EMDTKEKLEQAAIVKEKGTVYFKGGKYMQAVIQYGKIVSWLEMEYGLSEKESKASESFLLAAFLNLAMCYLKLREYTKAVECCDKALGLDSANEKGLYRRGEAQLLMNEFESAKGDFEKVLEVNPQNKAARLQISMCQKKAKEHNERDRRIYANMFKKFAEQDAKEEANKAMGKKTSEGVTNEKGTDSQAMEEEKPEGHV
# T3: glucocorticoid receptor (GR), endogenous, mouse brain / mouse lymphocyte lysate (mouse, UniProt P06537 1-792, limits assumed)
# T3 construct: Endogenous protein in tissue lysate; other cellular proteins are present in the co-IP and pull-down experiments; also called mouse GR
# T3 sequence (looked up): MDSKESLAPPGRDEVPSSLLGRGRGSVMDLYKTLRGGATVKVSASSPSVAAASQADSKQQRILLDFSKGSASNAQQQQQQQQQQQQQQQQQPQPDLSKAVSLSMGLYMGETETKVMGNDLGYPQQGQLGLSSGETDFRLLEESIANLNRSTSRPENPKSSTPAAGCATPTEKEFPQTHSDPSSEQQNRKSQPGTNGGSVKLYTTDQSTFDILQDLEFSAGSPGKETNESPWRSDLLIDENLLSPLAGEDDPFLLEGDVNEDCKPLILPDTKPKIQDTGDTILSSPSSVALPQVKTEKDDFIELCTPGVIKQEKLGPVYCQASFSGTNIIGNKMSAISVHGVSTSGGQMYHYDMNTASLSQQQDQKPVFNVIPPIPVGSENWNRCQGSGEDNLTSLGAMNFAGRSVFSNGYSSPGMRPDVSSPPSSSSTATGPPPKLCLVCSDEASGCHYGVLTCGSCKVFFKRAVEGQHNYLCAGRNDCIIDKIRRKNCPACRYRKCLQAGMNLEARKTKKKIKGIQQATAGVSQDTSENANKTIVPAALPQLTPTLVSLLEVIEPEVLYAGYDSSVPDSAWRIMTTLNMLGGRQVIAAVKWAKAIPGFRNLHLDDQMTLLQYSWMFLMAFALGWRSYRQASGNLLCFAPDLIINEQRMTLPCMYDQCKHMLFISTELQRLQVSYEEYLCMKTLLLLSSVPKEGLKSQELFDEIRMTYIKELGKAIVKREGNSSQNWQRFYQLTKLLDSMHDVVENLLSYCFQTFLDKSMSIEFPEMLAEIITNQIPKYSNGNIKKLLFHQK
# T4: FK506 Binding Protein 51 (FKBP51), endogenous, mouse brain / mouse lymphocyte lysate (mouse, UniProt Q64378 1-456)
# T4 construct: Endogenous protein in tissue lysate; also called mouse FKBP51
# T4 sequence (looked up): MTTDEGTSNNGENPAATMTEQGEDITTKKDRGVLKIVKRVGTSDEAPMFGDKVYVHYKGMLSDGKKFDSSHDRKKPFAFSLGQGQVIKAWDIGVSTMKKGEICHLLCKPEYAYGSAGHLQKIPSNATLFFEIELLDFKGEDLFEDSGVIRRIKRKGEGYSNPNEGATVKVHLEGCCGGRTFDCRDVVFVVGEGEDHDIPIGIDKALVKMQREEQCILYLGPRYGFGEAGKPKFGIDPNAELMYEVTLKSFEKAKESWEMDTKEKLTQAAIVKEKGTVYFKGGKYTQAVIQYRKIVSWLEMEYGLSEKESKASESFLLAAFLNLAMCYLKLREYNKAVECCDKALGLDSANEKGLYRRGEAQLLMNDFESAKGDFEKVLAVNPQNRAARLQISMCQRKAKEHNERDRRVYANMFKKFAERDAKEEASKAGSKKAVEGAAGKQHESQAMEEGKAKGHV
# Experiments:
# FKBP51 = target: T1, FKBP51; experiment: GST pull-down of FKBP51 by GST-GR fragments in mouse brain tissue; format: binding
# Excerpt: The present inventors identified that if increased GR-FKBP51 complex levels are part of the pathophysiology of PTSD, then disrupting the complex may rescue behaviors related to PTSD. To develop an agent (in this example, a peptide-based agent) capable of blocking the GR-FKBP51 interaction, experiments were first performed to identify the regions of the GR that are important to bind FKBP51 (and vice versa). Initially, GST-fusion proteins were used encoding the amino-terminus (NT) of GR (GRNT) and the carboxyl-terminus (CT) of GR (GRCT) for affinity purification. […] Extending this strategy, GRNT fragments were examined (see FIG. 8, where the 6 tested GRNT fragments, NT-1, NT-2, NT-3, NT-4, NT-5, and NT-6 are shown). […] Similarly, it was determined that the TPR (tetratricopeptide repeat) domains of FKBP51 bind GR (FIG. 2D). In these studies, GST-fusion proteins of 3 different portions of the FKBP51 protein were prepared (FK1, FK2, and TPR, see FIG. 9) and tested. The TPR fragment was identified as containing the relevant interaction region.
# GST-fusion proteins encoding truncated GR fragments were amplified by PCR from full-length human cDNA clones. All constructs were sequenced to confirm the absence of PCR-generated errors. GST-fusion proteins were prepared from bacterial lysates with glutathione sepharose 4B beads as instructed by the manufacturer (Amersham).^25 To construct GST-fusion proteins encoding truncated GR, cDNA fragments were amplified by using PCR with specific primers. 5′ and 3′ oligonucleotides incorporated with specific restriction enzyme sites were used to facilitate sub-cloning into the pGEX-4T3 vector. To confirm appropriate splice fusion and correct nucleotide sequences, all constructs were re-sequenced.
# FKBP51-TPR = target: T2, FKBP51-TPR; experiment: Surface plasmon resonance, binding of FKBP51 TPR domain to GR and its phosphorylation mutants; settings: Flag-tagged GR immobilized on sensor chip, 25° C.
# Procedure: The binding of FKBP51 TPR domain to GR and its phosphorylation mutants was determined by surface plasmon resonance using a Reichert SR7500DC instrument. Experiments were conducted at 25° C. with 2000 RU HEK293 expressed FLAG-tagged GR bound onto a FLAG antibody-coated Dextran 50,000 Da chip. Running buffer (PBS, pH 7.4 with 0.005% Tween 20) was used with a flow rate of 25 μl/min. With association time of 300s and dissociation of 240s, binding signals were determined by injecting various concentrations of the GST-FKBP51_TPR.
# [1] = target: T3, glucocorticoid receptor (GR), …; experiment: GST pull-down from mouse brain tissue, Western blot
# [2] = target: T4, FK506 Binding Protein 51 (FKBP51), …; experiment: as above
binding result [1],binding result [2],Molecule,other results
,,GST-GRNT4-1: GST-fusion protein of GR fragment SPWRSDLLIDENCLL (S211-L225) (also: GST fusion protein),"pull-down (precipitation) of FKBP51 by GST-GR fragment, Western blot (FKBP51): can “pull-down”"
,,WT GR: Flag-tagged wild-type glucocorticoid receptor expressed in HEK293,"Kd (FKBP51-TPR; figure legend values, read-out: KD for binding FKBP51-TPR (SPR)): 3.31 µM; Kd (FKBP51-TPR; read-out: KD for binding FKBP51 (SPR)): 3.31 ± 0.04 µM"
,,"GST-GRNT: GST-fusion protein encoding the amino-terminus of GR (protein, left off: a dimerising Fc or GST, GST-fusion protein encoding the amino-terminus of GR) MDSKESLTPGREENPSSVLAQERGDVMDFYKTLRGGATVKVSASSPSLAVASQSDSKQRRLLVDFPKGSVSNAQQPDLSKAVSLSMGLYMGETETKVMGNDLGFPQQGQISLSSGETDLKLLEESIANLNRSTSVPENPKSSASTAVSAAPTEKEFPKTHSDVSSEQQHLKGQTGTNGGNVKLYTTDQSTFDILQDLEFSSGSPGKETNESPWRSDLLIDENCLLSPLAGEDDSFLLEGNSNEDCKPLILPDTKPKIKDNGDLVLSSPSNVTLPQVKTEKEDFIELCTPGVIKQEKLGTVYCQASFPGANIIGNKMSAISVHGVSTSGGQMYHYDMNTASLSQQQDQKPIFNVIPPIPVGSENWNRCQGSGDDNLTSLGTLNFPGRTVFSNGYSSPSMRPDVSSPPSSSSTATTGPPPKL","pull-down (precipitation) of FKBP51 by GST-GR fragment, Western blot (FKBP51): can “pull-down”; also recorded: precipitated FKBP51"
no binding,,"GST-FK1 (other, also called FKBP51FK1; not shown: glutathione S-transferase (GST) tag; vector stated only for the GR fragments (pGEX-4T3)) MTTDEGAKNNEESPTATVAEQGEDITSKKDRGVLKIVKRVGNGEETPMIGDKVYVHYKGKLSNGKKFDSSHDRNEPFVFSLGKGQVIKAWDIGVATMKKGEICHLLCKPEYAYGSAGSLPKIPSNATLFFEIELLDFKGEDLF",
,no binding,"GST-GRNT5 (other, not shown: glutathione S-transferase (GST) tag from the pGEX-4T3 vector) EDFIELCTPGVIKQEKLGTVYCQASFPGANIIGNKMSAISVHGVSTSGGQMYHYDMNTASLSQQQDQKPI",
no binding,,"ESKASESFLLAAFLNLAMCYLKLREYTKAVECCDKALGLDSANEKGLYRR (other, cysteine pairing not given here; also: GST tag fusion, linker not given here, also called FKBP51TPR-2; not shown: glutathione S-transferase (GST) tag; vector stated only for the GR fragments (pGEX-4T3)) [GST-TPR2]",
,no binding,"GST-GRNT2 (other, not shown: glutathione S-transferase (GST) tag from the pGEX-4T3 vector) SNAQQPDLSKAVSLSMGLYMGETETKVMGNDLGFPQQGQISLSSGETDLKLLEESIANLNRSTSVPENPK",
,no binding,"GST-GRCT (GST fusion of the carboxyl-terminus of GR) (other, not shown: glutathione S-transferase (GST) tag from the pGEX-4T3 vector) CLVCSDEASGCHYGVLTCGSCKVFFKRAVEGQHNYLCAGRNDCIIDKIRRKNCPACRYRKCLQAGMNLEARKTKKKIKGIQQATTGVSQETSENPGNKTIVPATLPQLTPTLVSLLEVIEPEVLYAGYDSSVPDSTWRIMTTLNMLGGRQVIAAVKWAKAIPGFRNLHLDDQMTLLQYSWMFLMAFALGWRSYRQSSANLLCFAPDLIINEQRMTLPCMYDQCKHMLYVSSELHRLQVSYEEYLCMKTLLLLSSVPKDGLKSQELFDEIRMTYIKELGKAIVKREGNSSQNWQRFYQLTKLLDSMHEVVENLLNYCFQTFLDKTMSIEFPEMLAEIITNQIPKYSNGNIKKLLFHQK",
,no binding,"GST-GRNT6 (other, not shown: glutathione S-transferase (GST) tag from the pGEX-4T3 vector) FNVIPPIPVGSENWNRCQGSGDDNLTSLGTLNFPGRTVFSNGYSSPSMRPDVSSPPSSSSTATTGPPPKL",
,,"GST-GRNT4: GST-fusion protein of GRNT fragment 4 (protein, also: GST fusion protein) SPWRSDLLIDENCLLSPLAGEDDSFLLEGNSNEDCKPLILPDTKPKIKDNGDLVLSSPSNVTLPQVKTEK","pull-down (precipitation) of FKBP51 by GST-GR fragment, Western blot (FKBP51): can “pull-down”; pull-down (precipitation) of FKBP51 by GST-GR fragment, Western blot (FKBP51; listed as NT-4): best precipitation of FKBP51"
no binding,,"EMDTKEKLEQAAIVKEKGTVYFKGGKYMQAVIQYGKIVSWLEMEYGLSEK (other, also: GST tag fusion, linker not given here, also called FKBP51TPR-1; not shown: glutathione S-transferase (GST) tag; vector stated only for the GR fragments (pGEX-4T3)) [GST-TPR1]",
,no binding,"GST-GRNT1 (other, not shown: glutathione S-transferase (GST) tag from the pGEX-4T3 vector) MDSKESLTPGREENPSSVLAQERGDVMDFYKTLRGGATVKVSASSPSLAVASQSDSKQRRLLVDFPKGSV",
no binding,,"GST-FK2 (other, also called FKBP51FK2; not shown: glutathione S-transferase (GST) tag; vector stated only for the GR fragments (pGEX-4T3)) EDGGIIRRTKRKGEGYSNPNEGATVEIHLEGRCGGRMFDCRDVAFTVGEGEDHDIPIGIDKALEKMQREEQCILYLGPRYGFGEAGKPKFGIEPNAELIYEVTLKSFEKAKESW",
no binding,,"IYANMFKKFAEQDAKEEANKAMGKKTSEGVTNEKGTDSQAMEEEKPEGHV (other, also: GST tag fusion, linker not given here, also called FKBP51TPR-4; not shown: glutathione S-transferase (GST) tag; vector stated only for the GR fragments (pGEX-4T3)) [GST-TPR4]",
,no binding,"GST-GRNT3 (other, not shown: glutathione S-transferase (GST) tag from the pGEX-4T3 vector) SSASTAVSAAPTEKEFPKTHSDVSSEQQHLKGQTGTNGGNVKLYTTDQSTFDILQDLEFSSGSPGKETNE",
